Source: the DeepSol protein solubility set

Assay: soluble on expression in E. coli; label from the status in PepcDB or PDB records

| Sequence | soluble on expression in E. coli |
| --- | --- |
| SREWRTKIQAQIDRFPIGDREGEWQTMIQKMVSSYLVHHGYCATAEAFARSTDQTVLEELASIKNRQRIQKLVLAGRMGEAIETTQQLYPSLLERNPNLLFTLKVRQFIEMVNGTDSEVRCLGGRSPKSQDSYPVSPRPFSSPSMSPSHGMNIHNLASGKGSTAHFSGFESCSNGVISNKAHQSYCHSNKHQSSNLNVPELNSINMSRSQQVNNFTSNDVDMETDHYSNGVGETSSNGFLNGSSKHDHEMEDCDTEMEVDSSQLRRQLCGGSQAAIERMIHFGRELQAMSEQLRRDCGKNTANKKMLKDAFSLLAYSDPWNSPVGNQLDPIQREPVCSALNSAILETHNLPKQPPLALAMGQATQCLGLMARSGIGSCAFATVEDYLH | soluble |
| MSLQFIGAGLGRTGTLSLKLALERLGVGRCYHAMELAANLRQDLPQWESAIDGRPDWDRIFAGYAATTDYPGCCFWMELAARYPHAKVILTVRDPDAWFDSVSATIFSGSNNLPSLFGSRGQRLSQFLRRDLGARLGERAFMTDYFRRWNQAVITHIPAPRLLVLDTDTESSWERLCAFLALPVPAFPYPRVHMRGASVPQRPLPTEPALIEQRMRTYLDRLAEEAFAPPTAPLEHHHHHH | soluble |
| SNQDEPRCLFVKDADSQVDLQITFRGFSRPDPQLAASRLLRRVLAGGGCSRLHLNLRERLGIVYSVDAQVAAYDETGCFSIELSTAPENLLTAVEEVLGETRKLAAEPVGAEELRRVRQGYFFDLAYSEDSTFEMQVRYGWGELMGMVKGIDEERAEVEAVDEGTLQAVARRLFAPAALNLVAVGPVTATAKRRIEQLLRRYAKEFPTSSQPPGP | not soluble |
| MKVVVIDAGHGAKDSGAVGISRKNYEKTFNLAMALKVESILKQNPKLEVVLTRSDDTFLELKQRVKVAENLKANVFVSIHANSSGSSASNGTETYYQRSASKAFANVMHKYFAPATGLTDRGIRYGNFHVIRETTMPAVLLEVGYLSNAKEEATLFDEDFQNRVAQGIADGITEYLDVK | soluble |
| MSLTAYKRVLLKLSGESLMGAQQYGIDPNRLADYASDIKEACAMGVQIGIVIGGGNIFRGVSGAAKGFDRVKGDQMGMLATVINSLALSSALEGVGVKTKVLTAVRMEPIGEFYNKWHAIELLEQGYVTIFSCGTGNPFFTTDTGSSLRGIEIEADAMLKGTRVDGIYTADPEKDPSATKFDRITYDEIYARGLKVMDLTATAMCMENNLPIVVFDMDTPGNLLKVLRGEKIGTYVSNTSAEGHHHHHH | soluble |
| MLKSIELNSHIRNRLAEYLKGRGMDFQTAMQEEKGNKEIAAIVHSGLPTLVRKLYSEQKMQKFFWEKRDLIADYISRRMQG | not soluble |
| MNIYKLIGRNLEITDAIRDYVEKKLARLDRYQDGELMAKVVLSLAGSPHVEKKARAEIQVDLPGGLVRVEEEDADLYAAIDRAVDRLETQVKRFRERRYVGKRHSYQGPPPPEVRDLEALRKPEEEEGPRIVRVKRFEMKPMDPEEAAFQMEALGHSFFVFRNAKTDEINVIYRRKDGNYGLIEPA | soluble |
| MIDVFDGQVTTRIALQLLALLAQRPGELRHAKWSEFDEADKVWAIPAGKMKMRRDHFVPLADQAITLLNELRPLTGESEYLFPSLRSWHRPMSENTMNAALRRMGYSGDEMTAHGFRATFSTLANESGLWNPDAIERALAHEERNELEHHHHHH | not soluble |
| MSLIEPDHPDLSIGQQCKLLSIARSSYYYEPKGETEQNLGLMRRIDEQFLETPFFGVRQMTWHLRNDGHLVNEKRIRWLMRLMGLMPIYQKPNTNRPTKGHKTYPYLLRGLRVERPNQVWCSDITYLPMRRGFLYLVAIMDWHTRKVLSWRISNTLEAQFCVDALNEAIHKFGPPEIMNTDQGSQFTSFAWTDRLRRSGVRISPLAHENMRCRAADGRERSVPPLSWFASKPLSGNGQHLHREAVAHPEIRVRLPACLGDRFGDKGGHPEMDDLLQPPAPAFSPRRQATGAGLLAEKEGHHHHHH | not soluble |
| MSLATPSFGNSSPQLTFTHVANFMNDAAADVSAVDAKQLAQIRQFLKANKTNLIESLNTIRQNVTSSGDHNKLRSTIANLLQINVDNDPFFAQSEDLSHAVEFFMSERSSRLHIVYSLLVNPDIDLETYSFIDNDRFNVVGKLISIISSVIQNYDIITASSLAHDYNNDQDMFTIVSLVQLKKFSDLKFILQILQILNLMILNTKVPVDIVNQWFLQYQNQFVEFCRNINSTDKSIDTSSLQLYKFQNFQDLSYLSETLISRISSLFTITTILILGLNTSIAQFDIQSPLYMDTETFDTVNSALENDVATNIVNEDPIFHPMIHYSWSFILYYRRALQSSESFDDSDITKFALFAESHDVLQKLNTLSEILSFDPVYTTVITVFLEFSLNFIPITASTSRVFAKIISKAPEQFIENFLTNDTFEKKLSIIKAKLPLLNESLIPLINLALIDTEFANFELKDICSFAVTKSSLNDLDYDLIADTITNSSSSSDIIVPDLIELKSDLLVAPPLENENSNCLLSIPKSTKGKILTIKQQQQQQQNGQQPPTTSNLIIFLYKFNGWSLVGRILQNLLHSYMEKGTQLDDLQHELMISIIKLVTNVVDPKTSIEKSSEILSYLSNSLDTSASTINGASIIQVIFEIFEISLQRKDYTSIVQCCEFMTMLTPNYLHLVSSYLNKSDLLDKYGKTGLSNMILGSVELSTGDYTFTIQLLKLTKVFIRESLSLKNIHISKRSKIDIINKLILHAIHIFESYYNWKYNNFLQKFEIAFHLTLIFYDVLHDVFTINPHQKDQLIISSSANKLLQLFLTPMDSIDLAPNTLTNILISPLNTTTKILGDKILGNLYSKVMNNSFKLCTLLISIRGSNRDLKPSNLEKLLFINSSKLVDVYTLPSYVHFKVQIIELLSYLVEAPWNDDYPFLLSFLGEAKSMAFLKEVLSDLSSPVQDWNLLRSLYIFFTTLLESKQDGLSILFLTGQFASNKKINDESSIDKKSSILTVLQKNSLLLDSTPEEVSCKLLETITYVLNTWTNSKIFIKDPKFVNSLLAKLKDSKKLEGHHHHHH | not soluble |
| MEYMVLIYRDEAFAPEYGSPEWEQMMGGFLAFNQRLIDGGHWIAGGGLQTTPSATTVRLAAGTVPKVLDGPYAETKEQLGGFYLVRADTLDEVLDLARSLPIEGAIEVRPLTYRPTGE | not soluble |
| MINRPSTVNNPFIGTNAVLRLRQQRLEQSTKPFRARGSRVMRCQQCLLPAINCLCHTIQAQPSRSRVCLVMFDTEPLKPSNTGRIIADILPETQAFRWSRTEPDPQLLATLQDPDVQPYLVFLADAAEEGRQVFQQLPATEKPALFVLLDGTWPEARKMFRKSPYLDNLPILSLNVEALSRYQLREASSAGQHCTAEIAIALLAQAGDIVAADALSQHFDRFRQHYLAGKPHHRLQENLPIVTAQPAESVLEHHHHHH | not soluble |
| METQENMIKTALQAAQKPFFEFAPNNTPLVFTPDQDGGWRYKSHPELMQNPYRKCGKFLMHDTASLIKFVQKHKQDGTQIYIDADFKSGRIDVTAVINGHTQQAPGWLDFYAVYTPQHTTSASNWLNNNAHRMNQMEFSHFLTNNARNIVSKNPGNENSVYPTAAEVLDFALNLEYTEKTTFKQGYREQDGRINFTFQSEDSGQTEKNLKMFERFGIEFTPHQGGASYFVEALLKFRIDKNSGALVLWYELQQIDAVIEQAAKDISEAVQKAFPEIDIYFGVIA | soluble |
| MGSDKIHHHHHHMKNAAISDSTLVSQYIQGNEEAFAELIKRHKSKVYSTIYLIVKDRYLAEDLLQDVFIKVIHKMKGGQYNDEGKFLPWVVRIAHNLAIDYFRRNKRYPTIVMDEGMNIFNSLNFSEDSTESIQIKGENEALIRSLIHKLPESQREVVLMRHFSDMSFQEIADSTGVSINTALGRMRYALINLRKELTKQPKPIVYDKNVYPK | not soluble |
| MDTLHQQLCTHSGSTSPKGLYLWGDVGRGKTFLMDLFYDALPQRGKLRLHFHRFMARVHQALKVHAGQRDPLKLIAKNLAKECKVLCFDEFFVSDIGDAMILAGLFETLFAQGVVLVATSNIPIERLYENGLARHRFLPCIALLQAHTQMLHLNGKQDHRLHALSAKPSAEALAATSHNIGLTGTLDFDGIFAALTQNSPSIKDGKLRVCQREISVIRATTENQLPSVAWFDFNALCDGPRSQLDYIEIASRFKVLMLSNVPRLGGEVKGWIRARGTEDGTGDNQAATTGERQLSYAVNDDPARRFISLIDELYDQDVSLYLSCDVPLTELYQGGALSFEFRRTYSRLIEMSHSAAMKLTY | not soluble |
| MGSDKIHHHHHHMWTSKQQQALDHLAATPSLLVVSDFDGTLAGFSHDAMQVPVNHVAMAALQQLTSLPSTRVALLSGRDVQGLIQVSGAAAPMIVAGSHGAESTEGGLVLNEDQQAALSAVTAALEEIATSVPGAFVEHKPYHRVLHVIRVADQQRARAALDRALALEIPGAKIAEGKWIAEASVVDFTKGTWIKAAQEQYRPSVTLFLGDDTTDENGFAVLGCNDVGIKVGAGDTCATVRLESIDRVGQFLSSLADARSAAQQ | not soluble |
| MKVLPMLLALAVPGLCWAEDPQTFEGAGVVFEVQVEKNLVDIDHRLYRLPNSTVRNGMPSLFQVKPGSVVSYSGTVSQPWSTITDIYIHKQMSEQELAEMIEKEQPRQDGEEQPR | not soluble |
| NSFFKTGWKRFYLKWYGQDHPSAQALCPYTTELLKQFPNIKAAMFTALPPGSRLVRHRDPFAGSVRYHLGLITPNDDRCYIDVDGQQYSWRDGEAVIFDETYLHYAENTTDQNRIILFCDVERPMWFWPARVVNRIVSRVLVGAANSPN | not soluble |
| PLNRLGHKIYQHSGKWLQETAAEKLNQRDQLINPGHAQVLILGMGRIGTGAYDELRARYGKISLGIEIREEAAQQHRSEGRNVISGDATDPDFWERILDTGHVKLVLLAMPHHQGNQTALEQLQRRNYKGQIAAIAEYPDQLEGLLESGVDAAFNIYSEAGSGFARHVCKQLEPQFTSIK | soluble |
| MRATTIEEPARQVPLYGEYEVVVLGGGPAGIIAAASAARAGRKTLLIERYGFLGGMGTAAGVTNFCGLHGNVYGQAHRLVQGLASELLARIDLLNGLNTPHLILGKVFAQAYDTAAYKIAADELLASHKVNILFHALGAGVVMGDNSRIDALMVETKAGRQAVRSEIFIDCSGDGDLAVWAGAPFEVGDEHGHPLYPSMMLRLNNIDPEKAGEAWRTIPQLMEKALAAGTHKFPRKSAIVRPQKSGIEWRVNFTQVAREDGHAINGIEPDDLTRGEIEGRRQALAAFEFLRTVPGFEKSYIVDLPPQLGIRETRRIKGGYQLSGEDVLGCASFEDSIGVNGWPIEAHVPGDVIFTFPPIPESRGYNELPYRMLVPEGVDNLLVAGRCASMTHEGQSAARVSGACFVMGEAAGSAAALALSGNRIPRDIPIEKLQETLKQQGAFIGRDQPVPEGLLEHHHHHH | not soluble |
| MGSDKIHHHHHHMAAPIIHGGGITEAAARFGGTPEDWLDLSTGINPCPAALPEIDARVWHRLPDRHVEEAARAAASRYYRTGELMPLPVPGTQAAIQLLPRIAGQRKRVAIFAPTYGEYARVLKAAGLVVDSVTCAGDLQAAHGLAVVVNPNNPTGRRFPPEEILAMAEAMRAHGGLLVVDEAFGDLEPDASVAGHVAANDNLVVFRSFGKYFGLAGLRLGFVVASRTVEDSFRDWLGPWSVSGPALAISAKLMEGDTLGIKVGIAERKAALDAVLFGAGLDVVGGTGLFTLVEHERAYDLHAALCEAHILTRKFDYDPRWLRIGLSPNAQGDRRLAEALNRMGV | not soluble |
| MKQPGEELQETLTELDDRAVVDYLIKNPEFFIRNARAVEAIRVPHPVRGTVSLVEWHMARARNHIHVLEENMALLMEQAIANEGLFYRLLYLQRSLTAASSLDDMLMRFHRWARDLGLAGASLRLFPDRWRLGAPSNHTHLALSRQSFEPLRIQRLGQEQHYLGPLNGPELLVVLPEAKAVGSVAMSMLGSDADLGVVLFTSRDASHYQQGQGTQLLHEIALMLPELLERWIERV | not soluble |
| IVMAETKETVIDEVVVTGTGAQKKVTVTGAVTTVDVSQLRTPTASITNALAGNVAGILARQTSGQPGSNISEFWIRGISTFGAGGSALVLVDGFERDMNEINVEDIQDFSVLKDASATAIYGSRGANGVVLITTKRGKEGK | not soluble |
